These results are taken from US20230242633A1 (KANAPH THERAPEUTICS, published 2023).

For assay [1], the target named is T1, mouse C3b (mouse, UniProt P01027 25-666; P01027 749-1663, limits assumed). The experiment in a line: ELISA, mouse C3b immobilised on the plate; the printed value lies above the highest concentration shown (Log10 about 1.2), the curve reaches only OD450 about 1. An excerpt: (§1) Specifically, a human C3b protein was immobilized on a plate, and C1.01, C1.02, C1.03, and C1.04, and hIgG1 as a control were bound thereto. Next, an anti-human immunoglobulin G antibody and an anti-horseradish peroxidase (HRP) antibody were sequentially bound thereto. Moreover, a mouse C3b protein was immobilized on a plate, and C1.01m to C1.03m containing mouse CRIg were bound to mouse C3b.
T1 sequence (P01027 25-666 limits assumed, chain 1 of 2): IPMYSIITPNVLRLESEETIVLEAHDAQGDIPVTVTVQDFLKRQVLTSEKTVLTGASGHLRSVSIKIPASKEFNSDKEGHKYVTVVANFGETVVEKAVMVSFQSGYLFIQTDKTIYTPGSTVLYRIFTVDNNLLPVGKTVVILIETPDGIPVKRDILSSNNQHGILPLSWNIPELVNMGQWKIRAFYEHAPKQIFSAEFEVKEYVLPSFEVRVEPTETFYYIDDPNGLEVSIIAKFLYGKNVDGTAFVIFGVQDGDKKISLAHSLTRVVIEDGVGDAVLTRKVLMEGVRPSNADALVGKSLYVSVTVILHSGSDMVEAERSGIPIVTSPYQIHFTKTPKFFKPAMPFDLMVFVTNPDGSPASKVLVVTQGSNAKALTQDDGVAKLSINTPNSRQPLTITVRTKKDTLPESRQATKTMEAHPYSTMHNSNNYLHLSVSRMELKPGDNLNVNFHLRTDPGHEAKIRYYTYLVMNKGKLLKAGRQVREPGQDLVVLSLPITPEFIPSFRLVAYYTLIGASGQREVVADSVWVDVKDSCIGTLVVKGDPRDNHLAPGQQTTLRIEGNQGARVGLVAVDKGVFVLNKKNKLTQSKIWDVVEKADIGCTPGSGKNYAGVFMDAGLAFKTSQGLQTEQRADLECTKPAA
T1 sequence (P01027 749-1663 limits assumed, chain 2 of 2): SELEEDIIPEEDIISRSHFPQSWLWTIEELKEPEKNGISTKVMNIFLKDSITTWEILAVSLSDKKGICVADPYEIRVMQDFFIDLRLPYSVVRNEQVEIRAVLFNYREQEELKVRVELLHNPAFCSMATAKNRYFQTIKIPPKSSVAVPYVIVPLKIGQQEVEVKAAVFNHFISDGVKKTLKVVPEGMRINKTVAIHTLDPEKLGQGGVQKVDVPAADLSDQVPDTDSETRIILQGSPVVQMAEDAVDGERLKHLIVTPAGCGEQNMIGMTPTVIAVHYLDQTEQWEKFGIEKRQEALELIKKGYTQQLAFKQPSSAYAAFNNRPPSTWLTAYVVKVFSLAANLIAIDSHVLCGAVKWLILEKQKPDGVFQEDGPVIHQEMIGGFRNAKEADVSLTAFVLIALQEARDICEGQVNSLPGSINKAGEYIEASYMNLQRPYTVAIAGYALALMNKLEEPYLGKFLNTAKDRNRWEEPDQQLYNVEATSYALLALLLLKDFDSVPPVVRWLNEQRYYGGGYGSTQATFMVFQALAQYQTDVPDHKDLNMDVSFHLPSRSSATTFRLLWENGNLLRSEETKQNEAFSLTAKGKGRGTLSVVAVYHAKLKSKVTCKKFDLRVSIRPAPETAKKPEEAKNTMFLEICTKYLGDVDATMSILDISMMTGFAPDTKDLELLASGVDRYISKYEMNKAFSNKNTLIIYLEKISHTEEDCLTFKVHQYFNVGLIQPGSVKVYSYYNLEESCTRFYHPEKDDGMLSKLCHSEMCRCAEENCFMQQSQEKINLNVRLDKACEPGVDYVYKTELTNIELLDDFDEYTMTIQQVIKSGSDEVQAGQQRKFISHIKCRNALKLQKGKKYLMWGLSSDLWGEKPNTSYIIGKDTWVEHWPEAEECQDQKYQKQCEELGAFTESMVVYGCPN
A general note: ELISA stands for enzyme-linked immunosorbent assay.

Assay [2] has as its target T1, mouse C3b. Kind of assay: ELISA, mouse C3b immobilised on the plate; no upper plateau in the range shown.
Text: as §1

In assay [3] the target is T1, mouse C3b. Kind of assay: Biacore SPR, 1:1 fit; analyte series 0.78125-50 nM; the analyte is not printed on the sheet, mouse C3b by legend paragraph 26 and the C3b dilution series of paragraph 225. The method, then:
(§2) A C3b stock solution was diluted to 50 nM using a 1×HBS-EP+ buffer. Human VEGF165 was diluted to 5 nM using a 1×HBS-EP+ buffer. The 50 nM and 5 nM solutions were then diluted to 0.78125 nM and 0.078125 nM. In the sample step, the diluted antigens were injected into the flow cells at a rate of 30 μL/min. Two 0 nM antigens (1×HBS-EP+ buffer) were used and removed from the reference signal. Binding for 180 seconds and separation for 400 seconds were performed. After the separation time, a stabilization step for 60 seconds was performed. In the regeneration step, 10 mM glycine (pH 1.5) was injected into the flow cells at a rate of 30 μL/min for 30 seconds, followed by a stabilization step for 60 seconds.
(§3) After subtracting the reference and 0 nM values from the sample values, binding kinetics were calculated using Biacore Insight Evaluation Software (Version 2.0.15.12933) and 1:1 binding model for curved fitting.
For orientation: SPR reads the build-up and loss of mass on a sensor chip optically.

A further assay concerns the target T2, human VEGF165 (human, UniProt P15692-4 27-191).
T2 construct: also called human VEGF165 protein
Kind of assay: Biacore SPR; the analyte is not printed on the sheet, human VEGF165 by legend paragraph 26. The method, then:
In order to measure the binding force of the fusion protein, the physical properties of the prepared fusion protein were analyzed using Biacore 8K (GE Healthcare, 29129951) instrument.
as §2, §3

T2 sequence (P15692 other isoform, or with tags, fused parts or gaps): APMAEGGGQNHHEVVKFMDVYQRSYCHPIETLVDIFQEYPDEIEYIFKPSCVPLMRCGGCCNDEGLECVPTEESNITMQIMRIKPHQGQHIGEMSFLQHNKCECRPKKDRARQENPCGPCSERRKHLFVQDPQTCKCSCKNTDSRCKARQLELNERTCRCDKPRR

B1: C1.03m (mu IgG2a Fc DANG-mu CRIg) (Fc fusion)
chain: EPRGPTIKPCPPCKCPAPNLLGGPSVFIFPPKIKDVLMISLSPIVTCVVVAVSEDDPDVQISWFVNNVEVHTAQTQTHREDYGSTLRVVSALPIQHQDWMSGKEFKCKVNNKDLPAPIERTISKPKGSVRAPQVYVLPPPEEEMTKKQVTLTCMVTDFMPEDIYVEWTNNGKTELNYKNTEPVLDSDGSYFMYSKLRVEKKNWVERNSYSCSVVHEGLHNHHTTKSFSRTPGGGGGSGGGGSHPTLKTPESVTGTWKGDVKIQCIYDPLRGYRQVLVKWLVRHGSDSVTIFLRDSTGDHIQQAKYRGRLKVSHKVPGDVSLQINTLQMDDRNHYTCEVTWQTPDGNQVIRDKIIELRVRKYNPPRINTEAPTTLHSSLEATTIMSSTSDLTTNGTGKLEETIAGSGRNLPG
The EC50 is the concentration needed to bring the measured effect to its halfway point. Lower therefore signals greater potency. Turning to B1, the response in the assay with mouse C3b [1] was half-maximal at 31.1 µg/mL (EC50).

B2: C1.01m (mu CRIg-mu IgG2a Fc DANG) (Fc fusion)
chain: HPTLKTPESVTGTWKGDVKIQCIYDPLRGYRQVLVKWLVRHGSDSVTIFLRDSTGDHIQQAKYRGRLKVSHKVPGDVSLQINTLQMDDRNHYTCEVTWQTPDGNQVIRDKIIELRVRKYNPPRINTEAPTTLHSSLEATTIMSSTSDLTTNGTGKLEETIAGSGRNLPGGGGSEPRGPTIKPCPPCKCPAPNLLGGPSVFIFPPKIKDVLMISLSPIVTCVVVAVSEDDPDVQISWFVNNVEVHTAQTQTHREDYGSTLRVVSALPIQHQDWMSGKEFKCKVNNKDLPAPIERTISKPKGSVRAPQVYVLPPPEEEMTKKQVTLTCMVTDFMPEDIYVEWTNNGKTELNYKNTEPVLDSDGSYFMYSKLRVEKKNWVERNSYSCSVVHEGLHNHHTTKSFSRTPGK
Usually Kd stands for the constant that tells how readily two partners part at equilibrium. High values mean weaker binding, low ones tighter binding. B2 yielded an EC50 in the assay with mouse C3b [2] of 0.821 µg/mL. The same molecule showed a Kd in the assay with mouse C3b [3] of 0.987 pM.

B3: C1.02m (mu CRIg-mu IgG2a Fc DANG-VEGF binder) (Fc fusion)
chain: HPTLKTPESVTGTWKGDVKIQCIYDPLRGYRQVLVKWLVRHGSDSVTIFLRDSTGDHIQQAKYRGRLKVSHKVPGDVSLQINTLQMDDRNHYTCEVTWQTPDGNQVIRDKIIELRVRKYNPPRINTEAPTTLHSSLEATTIMSSTSDLTTNGTGKLEETIAGSGRNLPGGGGSEPRGPTIKPCPPCKCPAPNLLGGPSVFIFPPKIKDVLMISLSPIVTCVVVAVSEDDPDVQISWFVNNVEVHTAQTQTHREDYGSTLRVVSALPIQHQDWMSGKEFKCKVNNKDLPAPIERTISKPKGSVRAPQVYVLPPPEEEMTKKQVTLTCMVTDFMPEDIYVEWTNNGKTELNYKNTEPVLDSDGSYFMYSKLRVEKKNWVERNSYSCSVVHEGLHNHHTTKSFSRTPGGGGGSGGGGSSDTGRPFVEMYSEIPEIIHMTEGRELVIPCRVTSPNITVTLKKFPLDTLIPDGKRIIWDSRKGFIISNATYKEIGLLTCEATVNGHLYKTNYLTHRQTNTIIDVVLSPSHGIELSVGEKLVLNCTARTELNVGIDFNWEYPSSKHQHKKLVNRDLKTQSGSEMKKFLSTLTIDGVTRSDQGLYTCAASSGLMTKKNSTFVRVHEK
Turning to B3, the binding result in the assay with human VEGF165 is recorded as “binds”. In the assay with mouse C3b [2], this molecule returned an EC50 of 1.85 µg/mL. The molecule also showed a Kd in the assay with mouse C3b [3] of 7.97 pM.
